Assay [1] has as its target T1, human CD19 (human, UniProt P15391 20-556).
T1 construct: whole, on cells; also called CD19 on Ramos cells; CD19 on Raji cells
T1 sequence (looked up): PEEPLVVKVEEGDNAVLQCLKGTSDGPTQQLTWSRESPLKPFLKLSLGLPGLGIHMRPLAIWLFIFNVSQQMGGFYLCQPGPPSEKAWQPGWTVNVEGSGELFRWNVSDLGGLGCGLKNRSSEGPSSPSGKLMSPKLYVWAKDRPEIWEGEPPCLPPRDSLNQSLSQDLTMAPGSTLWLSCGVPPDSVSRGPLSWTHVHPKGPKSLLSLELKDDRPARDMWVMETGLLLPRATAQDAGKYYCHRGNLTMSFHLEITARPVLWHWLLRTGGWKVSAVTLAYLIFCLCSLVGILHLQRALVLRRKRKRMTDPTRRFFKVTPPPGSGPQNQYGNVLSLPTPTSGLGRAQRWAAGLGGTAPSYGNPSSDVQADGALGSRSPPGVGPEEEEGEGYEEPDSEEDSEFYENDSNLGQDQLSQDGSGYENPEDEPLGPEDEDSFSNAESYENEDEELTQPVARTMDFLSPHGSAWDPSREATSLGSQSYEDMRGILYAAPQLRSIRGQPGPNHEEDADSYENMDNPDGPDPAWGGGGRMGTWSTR
Briefly: flow cytometry on Ramos cells.

In assay [2] the target is T1, human CD19. Briefly: cell-based or functional assay.
Another assay deals with T2, human CD3 (human, UniProt P07766 23-207).
T2 construct: whole, on cells; On cells CD3 stands as the full CD3/TCR complex; also called CD3 on Jurkat cells
Briefly: flow cytometry on Jurkat cells. Background: In flow cytometry, cells or beads pass a laser one at a time.

T2 sequence (P07766 23-207): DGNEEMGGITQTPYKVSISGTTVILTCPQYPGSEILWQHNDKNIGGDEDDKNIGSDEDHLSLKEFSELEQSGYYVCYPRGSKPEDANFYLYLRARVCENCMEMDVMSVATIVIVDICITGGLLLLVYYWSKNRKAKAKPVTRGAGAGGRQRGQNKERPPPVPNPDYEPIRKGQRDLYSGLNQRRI

B1: W3438-T3U4.F16-1.uIgG4.SP (bispecific antibody)
light 1: DIVMTQSPDSLAVSLGERATINCKSSQSLLNSRTRKNYLAWYQQKPGQPPKLLIYWASTRQSGVPDRFSGSGSGTDFTLTISSLQAEDVAVYYCTQSHTLRTFGGGTKVEIKPDIQNPDPAVYQLRDSKSSDKSVCLFTDFDSQTQVSQSKDSDVYITDKCVLDMRSMDFKSNSAVAWSQKSDFACANAFQNSIIPEDTFFPSPESS
heavy 1: QVQLVQSGAEVKKPGSSVKVSCKASGFAFTDYYIHWVRQAPGQGLEWMGWISPGNVNTKYNENFKGRVTITADKSTSTAYMELSSLRSEDTAVYYCARDGYSLYYFDYWGQGTLVTVLEDLKNVFPPEVAVFEPSEAEISHTQKATLVCLATGFYPDHVELSWWVNGKEVHSGVCTDPQPLKEQPALQDSRYALSSRLRVSATFWQNPRNHFRCQVQFYGLSENDEWTQDRAKPVTQIVSAEAWGRYGPPCPPCPAPEFLGGPSVFLFPPKPKDTLMISRTPEVTCVVVDVSQEDPEVQFNWYVDGVEVHNAKTKPREEQFNSTYRVVSVLTVLHQDWLNGKEYKCKVSNKGLPSSIEKTISKAKGQPREPQVYTLPPCQEEMTKNQVSLWCLVKGFYPSDIAVEWESNGQPENNYKTTPPVLDSDGSFFLYSRLTVDKSRWQEGNVFSCSVMHEALHNHYTQKSLSLSLGK
light 2: DIQLTQSPSFLSASVGDRVTITCSASSTVNYMHWYQQKPGKAPKLLIYSTSNLASGVPSRFSGSGSGTEFTLTISSLQPEDFATYYCHQWSSYPYTFGQGTKLEIKRTVAAPSVFIFPPSDEQLKSGTASVVCLLNNFYPREAKVQWKVDNALQSGNSQESVTEQDSKDSTYSLSSTLTLSKADYEKHKVYACEVTHQGLSSPVTKSFNRGEC
heavy 2: QMQLVQSGPEVKKPGTSVKVSCKASGYAFTSYNMYWVRQARGQRLEWIGYIDPYNGDTTYNQKFKGRVTITRDMSTSTAYMELSSLRSEDTAVYYCLTTAYAMDYWGQGTLVTVSSASTKGPSVFPLAPCSRSTSESTAALGCLVKDYFPEPVTVSWNSGALTSGVHTFPAVLQSSGLYSLSSVVTVPSSSLGTKTYTCNVDHKPSNTKVDKRVGGGGSGGGGSQMQLVQSGPEVKKPGTSVKVSCKASGYAFTSYNMYWVRQARGQRLEWIGYIDPYNGDTTYNQKFKGRVTITRDMSTSTAYMELSSLRSEDTAVYYCLTTAYAMDYWGQGTLVTVSSASTKGPSVFPLAPCSRSTSESTAALGCLVKDYFPEPVTVSWNSGALTSGVHTFPAVLQSSGLYSLSSVVTVPSSSLGTKTYTCNVDHKPSNTKVDKRVESKYGPPCPPCPAPEFLGGPSVFLFPPKPKDTLMISRTPEVTCVVVDVSQEDPEVQFNWYVDGVEVHNAKTKPREEQFNSTYRVVSVLTVLHQDWLNGKEYKCKVSNKGLPSSIEKTISKAKGQPREPQVCTLPPSQEEMTKNQVSLSCAVKGFYPSDIAVEWESNGQPENNYKTTPPVLDSDGSFFLVSRLTVDKSRWQEGNVFSCSVMHEALHNHYTQKSLSLSLGK
notes: also called WuXiBody
For orientation: EC50 means the concentration needed to bring the measured effect to its halfway point. On to B1, for which the EC50 with human CD19 [1] was 1.8 nM; with human CD3, 19.3 nM. For the same molecule, the “cytotoxic activity on Raji cells with CD8+ T cells, EC50” value with human CD19 [2] worked out at 3.2 nM.

For the origin of these results see patent US20200283523A1 (WUXI BIOLOGICS IRELAND, published 2020).
